Reference: patent US20230044825A1 (CZ BIOHUB SF, published 2023)

Molecular target: ATXN2 (UniProt Q99700 1-1313, limits assumed)
Assay: fluorescence microscopy, co-localization in cells

Chain of ATXN2 (Q99700 whole entry): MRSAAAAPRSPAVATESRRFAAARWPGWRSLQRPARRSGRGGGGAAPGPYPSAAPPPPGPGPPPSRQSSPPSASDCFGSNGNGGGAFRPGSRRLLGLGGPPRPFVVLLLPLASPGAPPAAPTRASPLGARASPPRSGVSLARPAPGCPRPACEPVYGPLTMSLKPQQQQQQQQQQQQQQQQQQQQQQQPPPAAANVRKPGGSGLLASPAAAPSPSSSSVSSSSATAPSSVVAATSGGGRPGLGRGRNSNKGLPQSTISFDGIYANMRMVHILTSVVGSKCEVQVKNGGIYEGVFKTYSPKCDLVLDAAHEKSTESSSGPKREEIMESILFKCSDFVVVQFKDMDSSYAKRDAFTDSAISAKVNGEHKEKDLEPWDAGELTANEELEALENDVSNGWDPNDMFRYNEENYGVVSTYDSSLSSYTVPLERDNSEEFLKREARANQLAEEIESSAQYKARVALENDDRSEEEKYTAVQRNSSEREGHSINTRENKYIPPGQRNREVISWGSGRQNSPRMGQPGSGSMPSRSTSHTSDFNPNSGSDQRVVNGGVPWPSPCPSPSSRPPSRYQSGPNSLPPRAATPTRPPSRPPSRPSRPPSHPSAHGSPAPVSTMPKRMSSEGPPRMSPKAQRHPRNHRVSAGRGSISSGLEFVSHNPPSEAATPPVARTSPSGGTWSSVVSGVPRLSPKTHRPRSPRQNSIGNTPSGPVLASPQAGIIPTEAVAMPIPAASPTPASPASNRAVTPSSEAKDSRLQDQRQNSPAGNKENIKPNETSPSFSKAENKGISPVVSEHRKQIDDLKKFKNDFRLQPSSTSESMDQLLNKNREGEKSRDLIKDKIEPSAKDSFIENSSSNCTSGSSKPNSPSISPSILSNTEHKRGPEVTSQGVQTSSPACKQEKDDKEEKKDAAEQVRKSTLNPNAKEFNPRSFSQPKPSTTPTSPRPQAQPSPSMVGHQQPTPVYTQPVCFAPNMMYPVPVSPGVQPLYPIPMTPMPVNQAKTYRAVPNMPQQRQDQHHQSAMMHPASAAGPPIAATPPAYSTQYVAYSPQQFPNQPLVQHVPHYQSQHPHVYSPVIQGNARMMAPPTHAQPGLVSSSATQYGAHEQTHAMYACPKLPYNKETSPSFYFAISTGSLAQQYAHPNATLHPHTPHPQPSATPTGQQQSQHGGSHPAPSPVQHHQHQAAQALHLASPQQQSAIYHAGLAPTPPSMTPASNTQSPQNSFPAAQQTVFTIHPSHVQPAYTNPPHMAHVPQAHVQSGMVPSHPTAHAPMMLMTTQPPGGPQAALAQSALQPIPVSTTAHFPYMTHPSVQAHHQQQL

- binding result: no binding
B1: GFP-PopTag (other)
chain: GGGGSGGGGSGGGGSGGGGSEVAEQLVGVSAASAAASAFGSLSSALLMPKDGRTLEDVVRELLRPLLKEWLDQNLPRIVETKVEEEVQRISRGRGA
notes: also called GFP-PopTag condensates; not shown: GFP; constructs subcloned into pcDNA3.1+N-eGFP
